The values that follow come from patent publication US20060058236A1, “Endogenously-formed conjugate of albumin” (priority 2004, published 2006).

One series deals with human serum albumin (Homo sapiens, UniProt P02768). The series is described as follows: Incubation of Epo conjugates with human serum albumin, SDS-PAGE and anti-HSA immunoblot. In kind it is in vitro ADME. The conditions noted are these: 0.05% HSA, 21 hours at 37° C., no small molecule thiols. As for the experimental part: mPEG-DTB-Epo (prepared as described above), mPEG-Epo, or Epo (0.2 mg/mL) was incubated with 0.05% human serum albumin (HSA) in 100 mM HEPES, 2 mM EDTA, pH 7.5 buffer for 21 hours at 37° C. […] The SDS-PAGE gel stained with SYPRO™ red protein stain is shown in FIG. 14A and an immunoblot probed with anti-HSA is shown in FIG. 14B.
A general note: In western blotting, separated proteins are transferred to a membrane and probed.

A short description of series [1]: Pharmacokinetic profile in rats dosed intravenously with 125I-labeled lysozyme or its PEG conjugates. In kind it is in vivo, rat. The conditions noted are these: intravenous. How it is done: Lysozyme (66 mg in […] in 0.1 M sodium phosphate buffer pH 7.3) was mixed with 605 μCi of Na^125I (ICN Biomedicals, Irvine, Calif.), in Iodo-Gen® coated tube (Pierce Chemical Company, Rockford, Ill.), and allowed to react for 1 hour at room temperature with 20 min intervals mixing. The iodination reaction was stopped by removing the free ^125I on a Sephadex G-25F gel filtration column (17 mL), and collecting the ^125I-lysozyme, which was then reacted with either mPEG-DTB-NPC and mPEG-NPC, and purified by cation exchange chromatography as described above.
Male Sprague-Dawley rats (250-330 g each, 3 animals per formulation per experiment) were dosed either by intravenous (via a lateral tail vein) or by subcutaneous (dorsally above the right rear leg) with ^125I labeled lysozyme or its PEG conjugates (0.35 mL, 0.4 mg protein/mL, 4.6×10^6 cpm/mL). Blood samples (0.4 mL) were collected via the retro-orbital sinus. All injections blood collections were performed while the animals were under inhaled anesthesia (isoflurane/O2). Samples were collected on heparin into polypropylene tubes and stored on ice for no longer than one hour before being pipetted in triplicate (0.100 mL) into fresh polypropylene tubes. Blood samples were collected at the following times after dosing (no single rat had blood collected at all of the following times): 30 sec, 15 min, 30 min and 1, 2, 3, 4, 6, 8, 24, 48, 72, 96, 120 and 168 hours post-dose. Note that the last 4 time points were added for the longer subcutaneous experiments. The samples were then counted for ^125I in a Packard™ 5000 gamma counter. The cpm counts were converted to concentration according to the specific activity of the samples.

The test system of a further series is Micrococcus luteus. The series is described as follows: Micrococcus luteus turbidity assay of active lysozyme after cleavage of the conjugate. The format is biochemical. As for the experimental part: A Micrococcus luteus turbidity assay was used to measure the amount of active lysozyme regenerated after cleavage of the conjugate.
At various time points, aliquots from the incubation vials were added to iodoacetamide to a final concentration of 20 mM, in order to stop the cleavage reaction. Samples were stored at 2-8° C. prior to analysis.
Micrococcus luteus stock solution was prepared at 0.3 mg/mL in 100 mM KPO4 pH 7. Lysozyme standards solutions were prepared at 1, 2, 4, 6, 8, and 10 μg/mL in PBS and a lysozyme standard curve was constructed (not shown). The samples from the cleavage reactions were diluted 1/10 in PBS. For the assay, 50 μL of standard, sample, or control were added per well to 96-well microtiter plates. To each well, 200 μL of Micrococcus luteus were added, and without delay, plates were read at 450 nm at 25° C. in a plate reader of a period of 10 min, in 30 second reading intervals.
The slopes (ΔA/min) were calculated for the first 5 minutes of the reading, and the corresponding lysozyme concentrations were extrapolated from the lysozyme standard curve.

A further series deals with T1, bovine serum albumin (Bos taurus, UniProt P02769).
T1 construct: purchased Proliant (Ankeny, IA)
T1 sequence (P02769 25-607): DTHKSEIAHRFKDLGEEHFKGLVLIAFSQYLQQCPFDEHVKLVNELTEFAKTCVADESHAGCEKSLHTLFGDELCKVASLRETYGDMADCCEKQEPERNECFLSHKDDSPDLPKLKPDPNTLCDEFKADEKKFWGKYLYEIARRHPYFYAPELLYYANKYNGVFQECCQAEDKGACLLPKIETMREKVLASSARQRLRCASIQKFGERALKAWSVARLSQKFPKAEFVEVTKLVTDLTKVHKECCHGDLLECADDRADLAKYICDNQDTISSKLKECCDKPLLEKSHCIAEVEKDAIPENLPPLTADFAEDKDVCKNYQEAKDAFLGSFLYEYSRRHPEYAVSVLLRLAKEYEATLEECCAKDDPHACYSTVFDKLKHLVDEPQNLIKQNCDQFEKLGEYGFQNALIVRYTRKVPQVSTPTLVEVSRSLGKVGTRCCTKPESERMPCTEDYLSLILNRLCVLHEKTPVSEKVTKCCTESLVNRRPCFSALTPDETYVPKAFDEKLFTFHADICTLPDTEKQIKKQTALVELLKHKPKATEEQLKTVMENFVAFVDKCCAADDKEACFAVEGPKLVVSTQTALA
The series is described as follows: Decomposition of PEG-DTB-lysozyme conjugates in 4% BSA solution, HPLC. In kind it is in vitro ADME. The conditions noted are these: room temperature, pH 7.4, HPLC after Q spin column. As for the experimental part: (§1) Conjugates of PEG-DTB-lysozyme were prepared as described in Example 1A. The conjugates (100 μg/mL=0.066 mM) were incubated in 0.6 mM cysteine or with 4% BSA at room temperature (22-24° C.), in 10 mM phosphate buffer pH 7.4 containing 2 mM EDTA. Aliquots were taken at various time points, reactions were stopped with 20 mM iodoacetamide, and stored at 2-8° C. until analysis.
For the conjugates incubated with BSA, analysis of the samples was done by diluting the samples 1/10 in 10 mM PO4 pH 7.4, passing through Q spin columns (Vivascience) in order to trap the albumin and any of its related products, and then analyzing on the same CM column.
(§2) HPLC was performed with the following conditions: Column: TOSOH TSK CM-5PW 10 micron (7.5 mm×7.5 cm); Mobile phase: (A) 10 mM NaPO4 pH 7.4 and (B) 500 mM NaCl in 10 mM NaPO4 pH 7.4; Gradient: 5 min 100% A, 20 min 0% B to 100% B; Flow rate: 1 mL/min; Fluorescence detector: λex 295 nm, λem 360 nm (slit 30 nm); and injection volume, 100 μL.

Series [2] can be described thus: Decomposition of PEG-DTB-lysozyme conjugates in cysteine solution, HPLC. In kind it is in vitro ADME. The conditions noted are these: 0.6 mM cysteine, room temperature, pH 7.4, HPLC. How it is done:
as §1
For the conjugates incubated with cysteine, analysis of the aliquots was as done follows. The samples were diluted 1/10 in 10 mM NaPO4 pH 7.4 and analyzed on a carboxymethyl (CM) cation exchanger column.
as §2

Regarding “Epo: Recombinant, human erythropoietin (EPO, EPREX)”, the “formation of albumin-Epo conjugate” value in the series with human serum albumin is listed as “Neither Epo alone nor the noncleavable mPEG-Epo formed the albumin-Epo conjugate”.
As to “lysozyme: lysozyme as a model therapeutic agent”, the “clearance from the blood stream / circulation lifetime” value in series [1] (24 hour period) is “cleared rapidly”.
Take “mPEG5K-DTB-lysozyme: methoxypolyethylene glycol (5 kDa) joined to lysozyme through a methyl-dithiobenzyl urethane linkage”: the “active lysozyme regenerated from the cysteine cleavage” value in the series on Micrococcus luteus (0.6 mM cysteine, 37° C.) stood at 74 µg/mL. Moreover, the “active lysozyme concentration after cleavage with BSA” value with Micrococcus luteus (4% BSA, 37° C., after 24 hours) was “approximately 18 μg/mL”. Further, in the series with Micrococcus luteus (24 hours), the “active lysozyme after BSA cleavage as percent of that from cysteine cleavage” value was 24%. The “release of lysozyme from the PEG in saline” value with Micrococcus luteus (saline at 37° C. for up to 24 hours) was “did not induce release of the lysozyme”. Besides, the “calculated half-life of remaining conjugate upon incubation in BSA” value with bovine serum albumin is 5 h. Besides, in series [2], the “calculated half-life of remaining conjugate upon incubation in cysteine” value is 0.75 h.
For the substance “mPEG12K-DTB-lysozyme: methoxypolyethylene glycol (12 kDa) joined to lysozyme through a methyl-dithiobenzyl urethane linkage”, in series [1], the “AUC values, cleavable vs noncleavable conjugate” value was “similar” and the “half-lives, cleavable vs noncleavable conjugate” value is on record as “similar”. In addition, the “calculated half-life of remaining conjugate upon incubation in BSA” value in the series with bovine serum albumin is 6 h. Further, in series [2], the “calculated half-life of remaining conjugate upon incubation in cysteine” value is 1 h.
